Our source for the protein production values is a protein production outcome set (Wang et al. 2014).
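Note: failed if final PepcDB status was selected cloned or expressed and not failed if soluble or beyond.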

A short description of this data set: label from the status in PepcDB records.
Regarding “MNTRNFSLPQLQNLPIEEARIVADALAVHATSRQIDSAASKLAALAEAGLKGDRQAYAAYQQLLYVLSLSDDVATAQTRRWLARAIYRVEERFMPAADLSRALSEEDFQKRLEQEIAAQSRERHPMSQYVFSGSASRAQLQVFLRHQWFRTFRLYRDAADLLVNLTDVDEAAALARYLYGELGEEDEKGSHPRLLAKLLEAIGLEADFQAVSTMPEEIAYLNNRARAFRHAEVGWGLAVFYITELVVPGNHEKLYRALLQAGLSEDQAEYYKVHISLVPPRAKREWQLIARRIPDVQFQNAFLTSLSQHFRVERAYYDAIWEEMQSVK”, the protein production result is listed as “not failed”.
The value for “MNTYKKIFYFSTILFFYSGFSYAQNINLLLRKGNTCYRKGQYKNAAPYYDQVLKTDPENIQALYKSGVCNLFRYSKEQALINFEKVLQKDSSYDKYLYYWLGRANQLNFNFDQADFFYTAFQQKTSKNKIQYKEADRYKYQLKCARNFVANPANYKIQNLGAAVNSSFSDHSPVVSYTDTLLFFTSRRVTNTEAKEEHDGEPFEDIFYSYRNSTGEWSKPELFHLNTSGHDATIQLFDNDTKIFIYSYLHDGDILLAHKNAGTWSTPVPVKEINSADFESDAFMTADGKTLYYATNHFKKNGDLDICFITKKDDNTWSKPQTLSSLINTDEDEDAPYISADGKTMYFSSRGHTSMGGYDIFKSELDSVTGQWQKPVNLGYPVNTPDEDLYFCLSAKTKRAFMSSYRTGGFGEKDIYEIIPVKNIQLLGSVMKGDTSTPFPNVTMQYIPMAGAMKGAQKTQVNTLADGTYTTELLSDNAYLVYISQGKDTLLKDTLVLPLNEFDHYVYKQLYILNIHDTAAVKDSVIHKVTDTIKTIAAAEIAKTVYFESNRADLNAEAKTELNQLGIYLDTHKEANVYISGHADALGSAAINNALSQKRAQAAAVYLKAKGISAARIKVESFGSEKPVETNATVEGRAKNRRVQIVVK” was “failed”; that for “MNVIRLKEDKFREALRLSEYAFQYKVDEDRLQQQITKMKESHEVYGIMEGENLAAKLHLIPFHIYIGKEKFKMGGVAGVATYPEYRRSGYVKELLQHSLQTMKKDGYTVSMLHPFAVSFYRKYGWELCANLLVCHMTKSDLVMKKQVNGTVKRFNKESHPEEVEKLYETFAELFSGMLVRNEKWWLQAVYDDLTLAIYYDENQTAAGYMLYKIENYKMTVEEFVPLHNEARNGLWNFICQHDSMIKDLEMTVSENEPLLYTLQEPRVKTEIKPYFMGRIVDVEQFLKQYELNWNNVQQEVILHITDSFAQWNNITVRIANHEITIIEEPIDKGIKLDINALSTILFGYRRPLELNELELISGSEEEIRAFESVVPVRKPFIYDFF” was “not failed”.
With “MNVLLGSVVIFATFVTLCNASCYFIPNEGVPGDSTRKCMDLKGNKHPINSEWQTDNCETCTCYETEISCCTLVSTPVGYDKDNCQRIFKKEDCKYIVVEKKDPKKTCSVSEWII”, the protein production result is “not failed”.
The same measure for “MNVNKPTTEKKLIDLNNDIIHNFDVSIVMSFYKRYTEFRKVLPHNAPYLQRNGIEVIIVLDDPDEKSELLMLLQNYPFINWKLIINERKHAPRNHASVLNVGLKHATKKYILQIDPEVEFLTDIIWQMRDAIEKYPMHYILAMMAYVPYEQELTENNIKELDFIPWGNLMVERNHLYKLHGYDETFITWGGEDNNMRARLDMSGIKKFILPEAKTIHREKNYDPNERSKRINKHSISDWRKMNYPSEAIANKDIWGSEFNKVIYDWQDNQYAKDLCYTYLQQFIGFEIRHPAAFRKRHKKIVLCQAYNEEKLIEGFLTNMANYFDGIILLDDESTDRTWDLAIHDKIILKVKKKRSGFNDLENRNILLDLSAFFQSEWFCFMDIDERFDERFTNFSEFENNKEIHVVSFRGVYLWNDEQSYKGDIPNSNKGILTVYRMFRPIGHTHINTHKKLHFIATPYFTNTWQSNILFKDYGSMKENDRIRKYERYIQEDQQKDMSSGYDYLLNSENLYQLDKIEEYLEHHHHHH”: “failed”; for “MNVSTAELLSWVVKSSYLVAATLFLLGLQRMASPLSARSGIRWAGLGMLIATVATFFLPELHNVPLILAALAIGTGVAWWSAKKVAITDMPQMVALYNGMGGGSAAAIGAVELLRFSFFANRDTAHWSAQAVAELAARQPDTAMVVLAVIGSAIGAVSLSGSIIAWAKLDGRLDRRMTFPGQQAFNLAVAVAVLALAIWAAGSLQPLAIIAFFVVALALGVLMTLPIGGADMPVVISLYNAFTGLAVAFEGYVLGNEALIIAGMMVGAAGILLTRLMAKAMNRPISGVLFSNFGGGGQAQEISGVQKPIEAGDVAAMMAFAERVVIVPGYGMAVAQAQHKIWELAQRLMARGVKVKFAIHPVAGRMPGHMNVLLAEAGVPYDLIADMDDINPEFASTDVSLVIGANDVVNPVAKTDSASPIYGMPILDVVNSRNTVVIKRGKGTGFAGIENALFYADNTRMLYGDGAEAAGALVSELKALDGSGH”: “failed”.
The same measure for “MNVTGKLRGLISFSTVLPLKSEASIEDIASLTLHWPLVGALIGVAVGSAGVAASLVFPGAVVACVAYGFAIWFTGFHHLDGLIDMGDALMSHGSFERKIEIMRDPRIGTGGLGLLLIVSSTTIAAIYSLPQGVLFQGLLIGEVSAKVCLTGCARVSRPLDGGTGRHFIMASRSPFTGMVWIFWAVAAYLLAGVPGAVSVAVAVLSGVFIGLVARRNFYWSTGDVLGASNEVGRMMSLLGLLAAIRLTGL”: “failed”.
The same measure for “MNVVQVEYLNVAEIKALLNSTISKLNPRYTSNYMIVTAILTGARLSEIAGLTWNDINFNFNTININKSYDYFAKSFKPTKNKSSNRIIKINNTLCDVLKELRTNNTDLVFKNKRGLIPTSNAVNKALRARLEELNINRRNFHFHSLRHSHVAFLLSQGIDIYPIAQRLGHSDITTTTRTYAYLIEEYKDKNDAIIIAGLDKLEHHHHHH”: “failed”; for “MNWIPLEQLLLKLHTPRAVSAAPAIDLGAVQEQALSLAAALQARGVRRLAVHLEDAVELAVALLGAWRAGASVLLPADLQAQTRQRWSSEVDLWLTDQDTPLHQLQASPLAPAELDPDTCQLSLCTSGSSGEPKRIEKNLRQLANEVVALEHLWGADLGQAWIIGSVATQHIYGLLFRVLWPLCAGRPFVRRQLPFPEDLQRASRECPAFAWVASPALLKRMGDNLDWPALSQVRRVFSSGGALPAEAASGLHQRLQQWPTEILGSSETGGIAWRQGPGLWQPFADVRLSQDADGALLIASPYLPAGHVEHTADAARIAADGRFELLGRLDRIVKLEEKRISLPMLEQALASHEWVAEARLGVIEDNRAYLGALLVLSEPGLHALRNQGRRHLTQALRQHLAGHCEALALPRRWRLVRQLPLNSQGKLPQAQVQALLLAPRPQAPEVLEQRQHEEEWQLQLAIPPDLAYFSGHFPQTPVLPGVVQVDWALALGQQLLELPGRFAGMEVLKFQQLVRPGDRIQLNLRFDAQRQKLYFAYLNDGAPCSCGRIVLEASCG”: “failed”; for “MNYHWSDHPDPNKWADCVHCGMCLEACPTYELTGHEQQSPRGRVHLIKSVAEGKLEVNEAFADPVFTCLDCRACETACPADVEVGGLIEEARGQIRQALPLSGWKLEHHHHHH”: “failed”.
For the sequence “MNYRNKAFLKYEEDYFIERIIKALKDYEEIIIISNNPEEYKEFGLKVFKDIYPSQGPLSGIHSALNHIKNDYCLVVACDMPFINKDVVNYLGNIKEDYEILIPKFQERLQPLCAIYKKSCKDIMEKELINNSNKLIKTCFKFSMKVVEEFPFIEKVHKKEIKNFYNINTVDEYEDLIKKKEILEHHHHHH”, the protein production entry was “failed”.
The same measure for “MNYSTLTSVLLCLLLGAPAWADHYQVVTEEWAPYNYEENGQLTGMTTEIVRAIMAVSGNDFNIVLAPSMRASHTLQMRPKTIMYSMFRTPEREVLYKWVGPIVEESVHPYQLATAAPVTSLEQLLHAPQITTRHAGLLPDMLQSLGFKNLDKSAAQSVQLYRMLLNGRTAIIIGDTDAGVAYQSRQLNIAPGTLRQIPIELYRSSLYIAFSRDCEDELVASWARALETLRQSGELERIQRRYEQLVGQ”: “failed”; for “MPAAAYWLPASDETPLYTRHWPSATAVGAVMLSHGMAEHAGRYERLAAALNAAGYHFYAIDQRGHGRTAEADELGHFADQGGWGKVVGDLASLNHHIRQQHPELPIFLLGHSMGSYISMAYLLHHSCSLQGAILSGSNYQPQALYRIARLIARFERWRQGPLGKSALIDFLSFGSFNKAFKPNRTAFDWLSRDPQEVDRYVADPLCGFRCSNQLWVDLLGGLADITPPTHLRQIDADLPLLIIGGERDPVSQGKRLGDLADALRGAGLRQVTLKTYPEARHELFNESNRDAVTQDLIDWLEQALRHRRDHST”: “failed”.
